Results from the supplement of paper PMC11246515.
± gives the standard deviation of the averaged measurements.

Assay: total protein half-life in vivo (active degradation + dilution); higher = more stable protein
[1] = E. coli NCM3722 delta-clpP delta-lon delta-hslV, growth: N-lim chemostat, doubling time 6 h
[2] = E. coli NCM3722 delta-clpP, growth: N-lim chemostat, doubling time 6 h
[3] = E. coli NCM3722 delta-hslV, growth: N-lim chemostat, doubling time 6 h
[4] = E. coli NCM3722 delta-lon, growth: N-lim chemostat, doubling time 6 h
[5] = E. coli NCM3722 delta-smpB, growth: N-lim chemostat, doubling time 6 h
[6] = wild type E. coli NCM3722, growth: C-lim chemostat, doubling time 3 h
[7] = wild type E. coli NCM3722, growth: C-lim chemostat, doubling time 6 h
[8] = wild type E. coli NCM3722, growth: C-lim chemostat, doubling time 12 h
[9] = wild type E. coli NCM3722, growth: N-lim chemostat, doubling time 6 h
[10] = wild type E. coli NCM3722, growth: N-lim chemostat, doubling time 12 h
[11] = wild type E. coli NCM3722, growth: P-lim chemostat, doubling time 6 h
[12] = wild type E. coli NCM3722, growth: P-lim chemostat, doubling time 12 h

Sequence	total protein half-life in vivo [1] [h]	total protein half-life in vivo [2] [h]	total protein half-life in vivo [3] [h]	total protein half-life in vivo [4] [h]	total protein half-life in vivo [5] [h]	total protein half-life in vivo [6] [h]	total protein half-life in vivo [7] [h]	total protein half-life in vivo [8] [h]	total protein half-life in vivo [9] [h]	total protein half-life in vivo [10] [h]	total protein half-life in vivo [11] [h]	total protein half-life in vivo [12] [h]
MLHTLHRSPWLTDFAALLRLLSEGDELLLLQDGVTAAVDGNRYLESLRNAPIKVYALNEDLIARGLTGQISNDIILIDYTDFVRLTVKHPSQMAW	5.27 ± 0.29	5.7	4.53 ± 0.13	6.44 ± 1.6	4.89 ± 0.16	3.012 ± 0.0044	5.1	13.4 ± 3	4.39 ± 0.46	8.26	5.89	11.3 ± 0.18
MDEYSPKRHDIAQLKFLCETLYHDCLANLEESNHGWVNDPTSAINLQLNELIEHIATFALNYKIKYNEDNKLIEQIDEYLDDTFMLFSSYGINMQDLQKWRKSGNRLFRCFVNATKENPASLSC [P0AAR0]	5.61 ± 0.1	7.07	–	–	–	–	–	–	–	–	–	–
MADWVTGKVTKVQNWTDALFSLTVHAPVLPFTAGQFTKLGLEIDGERVQRAYSYVNSPDNPDLEFYLVTVPDGKLSPRLAALKPGDEVQVVSEAAGFFVLDEVPHCETLWMLATGTAIGPYLSILQLGKDLDRFKNLVLVHAARYAADLSYLPLMQELEKRYEGKLRIQTVVSRETAAGSLTGRIPALIESGELESTIGLPMNKETSHVMLCGNPQMVRDTQQLLKETRQMTKHLRRRPGHMTAEHYW	–	3.93 ± 0.36	4.14 ± 0.33	4.64 ± 0.33	3.83 ± 0.12	2.888 ± 0.0031	5.62 ± 0.29	10.8 ± 0.21	4.29 ± 0.31	6.73 ± 0.41	5.609 ± 0.031	11.3 ± 0.53
MGKTISIKVLFGIYLLLMAGKVFAFSCNVDGGSSIGAGTTSVYVNLDPVIQPGQNLVVDLSQHISCWNDYGGWYDTDHINLVQGSAFAGSLQSYKGSLYWNNVTYPFPLTTNTNVLDIGDKTPMPLPLKLYITPVGAAGGVVIKAGEVIARIHMYKIATLGSGNPRNFTWNIISNNNVVMPTGGCTVDSRNVTVDLPDFPGSAEIPLGVYCSSEQKLSFYLSGATTDSSRQVFANTAPDATKASGVGVTLMRNGKILATGENVSLGTVNKSKVPLGLSATYGQTGNKVSAGTVQSVIGVTFIYE	–	5.18 ± 0.35	–	–	5.306 ± 0.0055	2.85 ± 0.12	3.09	8.385 ± 0.065	6.56	12.7 ± 0.21	–	–
MSEQHAQGADAVVDLNNELKTRREKLANLREQGIAFPNDFRRDHTSDQLHAEFDGKENEELEALNIEVAVAGRMMTRRIMGKASFVTLQDVGGRIQLYVARDDLPEGVYNEQFKKWDLGDILGAKGKLFKTKTGELSIHCTELRLLTKALRPLPDKFHGLQDQEARYRQRYLDLISNDESRNTFKVRSQILSGIRQFMVNRGFMEVETPMMQVIPGGAAARPFITHHNALDLDMYLRIAPELYLKRLVVGGFERVFEINRNFRNEGISVRHNPEFTMMELYMAYADYKDLIELTESLFRTLAQDILGKTEVTYGDVTLDFGKPFEKLTMREAIKKYRPETDMADLDNFDSAKAIAESIGIHVEKSWGLGRIVTEIFEEVAEAHLIQPTFITEYPAEVSPLARRNDVNPEITDRFEFFIGGREIGNGFSELNDAEDQAQRFLDQVAAKDAGDDEAMFYDEDYVTALEHGLPPTAGLGIGIDRMVMLFTNSHTIRDVILFPAMRPVK [P0A8N3]	5.76 ± 0.38	5.45 ± 0.16	5.23 ± 0.14	5.58 ± 0.26	5.19 ± 0.12	3.07 ± 0.11	5.894 ± 0.022	10.3 ± 0.74	4.98 ± 0.45	8.8 ± 0.29	5.67 ± 0.29	10.6 ± 0.79
MKSEVLSVKEKIGYGMGDAASHIIFDNVMLYMMFFYTDIFGIPAGFVGTMFLVARALDAISDPCMGLLADRTRSRWGKFRPWVLFGALPFGIVCVLAYSTPDLSMNGKMIYAAITYTLLTLLYTVVNIPYCALGGVITNDPTQRISLQSWRFVLATAGGMLSTVLMMPLVNLIGGDNKPLGFQGGIAVLSVVAFMMLAFCFFTTKERVEAPPTTTSMREDLRDIWQNDQWRIVGLLTIFNILAVCVRGGAMMYYVTWILGTPEVFVAFLTTYCVGNLIGSALAKPLTDWKCKVTIFWWTNALLAVISLAMFFVPMQASITMFVFIFVIGVLHQLVTPIQWVMMSDTVDYGEWCNGKRLTGISFAGTLFVLKLGLAFGGALIGWMLAYGGYDAAEKAQNSATISIIIALFTIVPAICYLLSAIIAKRYYSLTTHNLKTVMEQLAQGKRRCQQQFTSQEVQN	3.79 ± 0.88	2.71 ± 0.12	2.34 ± 0.037	2.68	–	2.83 ± 0.12	4.26 ± 0.11	8.19 ± 1.7	2.823 ± 0.011	4.72	5.34 ± 0.062	9.79 ± 1.1
MRGKILLYQLKYRWQSLSIFGCFLCKMTLFRYQKIIYDTGVHQMRSFFYTICSSEQQESITDHHSLAEICQKFNILPEHVVIEQVDIKEVVSEQRLLRQLIHHEMNRQDTLVIPDLSCLGRTVEDLQNILFFCLQKEMFIYSYHPASRIEPSAESCLSFLIARQDTIDIHNLKSTKSRYRHVKKKLGRKEGSKYRRDITILKKGGFTQAEIAKKLSISLSTVKRHWNNGIIG	6.03	–	–	–	–	–	–	–	–	–	–	–
